# Data published in patent US20150351390A1, “COMPOSITIONS AND METHODS FOR AUXIN-ANALOG CONJUGATION” (PIONEER HI-BRED INTERNATIONAL, INC., priority 2012, published 2015).
# B1: ZmACN26159: GH3 protein, accession ACN26159 (protein)
# chain: MTICSSEEIIDEFELLTRDARRVQQDTLRKILELNGDAEYLNRFNLGRRTDSKSFKSCIPLCVHSDIESYIQRIADGDDSPVLTGKPITSLSLSSGTTQGKPKFLPFNDELLESTFQIFRTSYAFRNREYPIVNGKALQFVYGSKQVFTQGGILAATATTNLYRSQRFKEAMKDVMTQCCSPDEVIFGPDFHQSLYCHLLCGLINSDEVQFVFSPFAHSLVHAFHSLEEVWEDLCADIRDGVLSKRVTAPSIRQAVSKILRPNPELASSIYIKCQSLSNWYGVIPTLWPNVKYIYGIMTGSMEPYLKKLRHYAGHLPLLSADYGASEGWVGSNINPTLPPEEVTYAVLPNIAYFEFIPLEKPKWEETEICSSVHYIESEPVGLTEVEVGKIYEVVITNFAGLYRYRLGDIVKIAGFHNATPELQFICRRSLVLSVNIDKNTEKDLQLAVEAAEKLLAAEKLEVVDFTSLVDRSSEPGHYVIFWELSSDDGASEDVLSGCASCMDLAFADAGYVGSRKTQTIGALELRVLRKGAFAQVMNHYLSLGGAVSQFKTPRFVSQSNSKVLQILSRNVTRSYFSTAYGL
# modifications: Zea mays
# B2: VvGH3-7: GH3 protein, accession XP_002272560 (protein, listed as Vitis vinifera)
# chain: MESAAGAESNGEHEIIGWFEDVSENTGYVQTQTLCRILELNSGVEYLKKWLGDINVQEMEASALESLYTSLVPLASHADLETYIQRIADGDTSPILTNQPITTLSLSSGTTEGRQKYVPFTRHSSQTTLQIFQLAAAYRSRVYPITPGRRILEFIYSSKQFKTKGGLIAGTATTHYFASEEFKIKQEKTKSFTCSPEEVISSGDYKQSTYCHLLLGLHFHDEVEFITSTFAYSIVQAFRTFEELWRNICSDIREGIVSSRISLPKVRKAVSDIISPNPGLASWIEASCKELEDKDWFGLIPKLWPNAKYVYSIMTGSMQPYLKKLRHYAGDLPLVSADYGSTESWIGANIDPSSPPENVTFAVIPTFSYFEFIPLYRQNQNCSSSIDDFIEDEPVPLSQVKIGQEYEIVLTTFTGLYRYRLGDVVEVAGFHKGTPKLNFICRRKLILTVNIDKNTEKDLQSVVEVGSQLLGKTKAELVDFTSHADLVKQPGHYIIYWEIKGEADDKVLSECCNEMDACFVDQGYIVSRKTHSIGPLELCIVERGTFKKILDHFIGKGAALSQFKTPRCTADEVLLRILNVCTIKRFHSTAYG
# B3: VvGH3-9: GH3 protein, accession XP_002280738.1 (protein, listed as Vitis vinifera)
# chain: MLEKMEEFKAEKVIEEFEELTKDAGRVQRETLKKILEDNASAEYLQKQGLNGRTDPESYQACVPLVTHADLVPYIKRIADGDTSPVLTGKPIKTMSLSSGTTQGKQKYVPFNDELLETTLQIYRTSFAFRNREFPVRNGMALQFIYGSKQFKTEGGLFAGTATTNVFSSSQFKTTMKAIESPCCSPDEVIFGPDFRQSLYCHLLCGLIHHNEIQLVSSTFAHSIVYAFRTFEQVWEQLCADIQDGVLTKDVTVPSIRAVMSKLLKPNPELAEWIYKKCSGLSNWYGVIPALFPNVKYVYGIMTGSMEPYLKKLRHYAGDVPLLSADYGSSEGWIGANINPKLPPELATYAVLPNIGYFEFIPLRGSAEEDRQDKIQSSFESKPVGLTEVKIGEEYEIIVTNFAGLYRYRLGDVVKIAGFHNMTPELQFVCRRNLLLTINIDKNTEKDLQLAVEAAAEVLAPEKVEVIDFTSQVDKSTDPGHYVIFWEISGEVSVEVSSECCNCLDRSFVDAGYISSRKVNSIGPLELKLVRRGTFQKILDHYLGIGGVLSQYKTPRCVNPNNNMVLQILYSNVVKSHFSTAFG
# B4: SlGH3-1: GH3 protein, SL2.40ch01: 78555183-78557768 (protein, listed as Solanum lycopersicum)
# chain: MLEKIEMKFDPEEVIEEFEALTKEAGKVQEETLKKILEENGSTVYLQQWGLNGRTDPEIFKSCVPLVTHKDLEPYIQRIADGDLSPVLTGKPITTISLSSGTTQGRPKFVPFNDELMESTMQIYKTSFAFRNREFPIENGKALQFIYSSKQFKTKGGLAAGTATTNVYRNAHFKKTMRAMQTPCCSPDEVIFGPDFHQSLYCHLLCGLIFRDEVQVVSSTFAHSIVHAFRTFEQVWEELVADIREGVISSRVTVPSMRSAIMKLLKPDPEQADSIYNKCSGLSNWYGLIPVLFPSARYIYGIMTGSMEPYLKKLRHYAGELPLLSADYGSSEGWIGANVNPKLPPELVTYAVLPNIGYFEFIPLRVNLDGLEPTPVGLAEVKLGEEYEIVVTNFAGLYRYRLGDVVKIKGFHNATPELQFICRSNLILSINIDKSTEKDLQLAVEAAARLLVDEKLEVVDFTSHANVATDPGHYVVFWELSGEASDETLQECCNCLDKSFVDAGYVGSRKVNVIGALELRVVKKGTFHKILDHFVGLGGAVSQFKTPRCVGQNNSRLLQILCYDVVKSYFSTAY
# B5: RcGH3-5: GH3 protein, accession EEF28472 (protein, listed as Ricinus communis)
# chain: MTKNAERVQKETLKKILEENGSAEYLQNLGLDGRTDPESFKICVPICTHGDLEPYIQRIADGDSSPVLTGKPITTISLSSGTTQGKPKYVPFTDQLLDNTLQIFRTSFAYRNREFPLENGKALEFVFSSKQGKTKGGLAAGTATTNLFRNPNYKTALEELQFKSCSPREVIFGSDFHQSLYCHLLCGLIFREDIQFVFSTFAHSIVLAFRTFEQVWEELCDDIRNGELSSRITAPSIRTAMSHLLKPNAELADLIHTKCSGLSNWYGLIPELFPNAKYIYGIMTGSMEPYLKKLRHYAGELPLLSADYGASEGWIAANVNPLLPPELATFAVLPDIGYFEFIPLRRNGDHIYSEPKPIGLSDVKIGEEYEILVTNFAGFYRYRLGDVVKVMGFHNSTPELKFVCRRSLLLSINIDKNTEKDLQLVVEEAAKLLADEKLEVVDFSSLADRSTDPGHYVIFWEISGEPTAEVLQECCNCLDRSFLDAGYVTSRKVKAIGPLELRVVHRGTFQKILDHYLGLGAAVSQFKTPRCVGPANNVVSQILSNNVAKSYVSTAF
# Assay: LC-MS assay of GH3 conjugation of IAA with Asp or Glu
# Type: biochemical
# Conditions: LC-MS; IAA with Asp
# Summary of the method: (§1)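 N-terminal His-tagged GH3 homologs, expressed in E. coli C41(DE3) and Ni-NTA purified, at 44 to 164 μg/mL incubated 3 h at 30 °C in 20 mM Tris-HCl pH 8.0, 5 mM MgCl2, 1 mM DTT, 5 mM ATP, 5 mM auxin (IAA, 2,4-D or dicamba) and 5 mM Asp or Glu. Conjugates quantified by LC-MS against standards after MeOH precipitation; kinetics from Michaelis-Menten fits of initial velocities.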
row,Molecule,Detected auxin conjugates: IAA-Asp
1,B1,No
2,B2,Yes
3,B3,No
4,B4,Yes
5,B5,Yes

# Same assay, conditions: LC-MS; IAA with Glu
row,Molecule,Detected auxin conjugates: IAA-Glu
1,B1,No
2,B2,No
3,B3,No
4,B4,No
5,B5,No

# Assay: LC-MS assay of GH3 conjugation of 2,4-D with Asp or Glu
# Type: biochemical
# Conditions: LC-MS; 2,4-D with Asp
# Summary of the method: as §1
row,Molecule,"Detected auxin conjugates: 2,4-D-Asp"
1,B1,No
2,B2,No
3,B3,No
4,B4,No
5,B5,No

# Same assay, conditions: LC-MS; 2,4-D with Glu
row,Molecule,"Detected auxin conjugates: 2,4-D-Glu"
1,B1,No
2,B2,No
3,B3,No
4,B4,No
5,B5,No

# Assay: LC-MS assay of GH3 conjugation of dicamba with Asp or Glu
# Type: biochemical
# Conditions: LC-MS; dicamba with Asp
# Method: To detect and monitor the formation of acyl conjugates with 2,4-D or dicamba, a sensitive LC-MS method was developed using the respective amino acid conjugate standards. […] […] […] The supernatant was diluted 20× in water and then analyzed by LC-MS (AB Sciex 4000 QTrap coupled with Shimadzu Nexera UHPLC) using a Phenomenex Luna 3 μm Phenyl-Hexyl (00B-4256-Y0) column. The concentration of the conjugates was calculated based on the standards. Kinetic parameters were estimated by fitting initial velocity values to the Michaelis-Menten equation.
# The GH3 superfamily conjugase activity analysis of IAA, 2,4-D or dicamba with Asp or Glu was done using LC-MS to analyze the final conjugate products as described in Example 1. Protein sequences of GH3 homologs (Table 3) were obtained from public databases (NCBI, http://www.ncbi.nlm.nih.gov/) by Blast analysis of AtGH3.17 protein sequence (accession # Q9FZ87). Coding sequences were designed for optimal expression in E. coli based on the protein sequences and synthesized. Synthesized coding sequences along with N-term his-tag coding sequences were cloned into a pET24a-based E. coli expression vector. The E. coli expression vectors were transformed into OverExpress C41(DE3) cells (Lucigen) for protein expression. Recombinant E. coli strains were inoculated into 5 ml LB media supplemented with 40 mg/L kanamycin and cultured overnight at 37° C. The overnight culture (0.5 mL) was inoculated into 50 mL LB medium plus 40 mg/L kanamycin and grown at 30° C. until OD600 reached 0.6. The cultures were induced with 0.2 mM IPTG at 16° C., 230 rpm overnight. Cells were harvested by centrifugation at 7,000 rpm for 10 mins. The cell pellet from 50 mL of cell culture was frozen and thawed twice and then lysed in 800 μL lysis buffer A (150 mM NaCl, 50 mM Tris-HCl pH 8.0, 5 mM MgCl2, 10% glycerol) plus 20 mM imidazole, 1 mM DTT, 0.2 mg/ml lysozyme, 1/200 protease inhibitor cocktail (EMD set3, EDTA free) and 1/2000 endonuclease. Lysate was then centrifuged at 13,000 rpm for 30 min at 4° C. Supernatant was loaded onto 200 μL Ni-NTA columns pre-equilibrated with buffer A with 20 mM imidazole at 4° C. Each column was then washed with (1) 2×800 μL of buffer A with 10 mM imidazole, (2) 2×800 μL of buffer A with 20 mM imidazole and (3) 2×200 μL of buffer A with 50 mM imidazole. Protein was eluted with 200 μL of buffer A with 250 mM imidazole. The concentration was measured by Bradford assay. Purified protein was used in conjugation reaction assays as described in example 1.
row,Molecule,Detected auxin conjugates: Dicamba-Asp
1,B1,No
2,B2,No
3,B3,No
4,B4,No
5,B5,No

# Same assay, conditions: LC-MS; dicamba with Glu
row,Molecule,Detected auxin conjugates: Dicamba-Glu
1,B1,No
2,B2,No
3,B3,No
4,B4,No
5,B5,No
